Experiments:
Hsp70 = target: T1, Hsp70 (Homo sapiens, UniProt P0DMV8); test: microscale thermophoresis with NT-647-labeled purified Hsp70; supported by DARTS and substrate-binding assay
T1 construct: gene HSPA1A

[1] = target: Caspase-3 (human (endogenous in U-937)) (UniProt P42574); test: co-IP; as a4, but biotinylated Hsp70 pretreated with 32 µM BT44
[2] = target: Caspase-3 (human (endogenous in U-937)) (UniProt P42574); test: ELISA; same competitive protein-protein interaction assay, read as competition: cellular Hsp70 of the lysate (raised by heat shock or hsp70 transfection) holds Caspase-3 of the lysate away from the immobilised pure Hsp70

Sequence of Caspase-3 (human (endogenous in U-937)) (P42574 whole entry): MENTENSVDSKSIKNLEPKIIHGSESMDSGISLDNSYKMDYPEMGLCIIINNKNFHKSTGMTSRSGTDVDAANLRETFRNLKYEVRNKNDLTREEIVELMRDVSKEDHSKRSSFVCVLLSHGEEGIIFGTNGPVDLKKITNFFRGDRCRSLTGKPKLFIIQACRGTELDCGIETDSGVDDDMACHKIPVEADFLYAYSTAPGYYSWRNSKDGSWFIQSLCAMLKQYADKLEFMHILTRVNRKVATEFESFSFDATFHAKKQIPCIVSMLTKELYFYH
Sequence of Cellular Hsp70 of U-937 cells (P0DMV8 whole entry): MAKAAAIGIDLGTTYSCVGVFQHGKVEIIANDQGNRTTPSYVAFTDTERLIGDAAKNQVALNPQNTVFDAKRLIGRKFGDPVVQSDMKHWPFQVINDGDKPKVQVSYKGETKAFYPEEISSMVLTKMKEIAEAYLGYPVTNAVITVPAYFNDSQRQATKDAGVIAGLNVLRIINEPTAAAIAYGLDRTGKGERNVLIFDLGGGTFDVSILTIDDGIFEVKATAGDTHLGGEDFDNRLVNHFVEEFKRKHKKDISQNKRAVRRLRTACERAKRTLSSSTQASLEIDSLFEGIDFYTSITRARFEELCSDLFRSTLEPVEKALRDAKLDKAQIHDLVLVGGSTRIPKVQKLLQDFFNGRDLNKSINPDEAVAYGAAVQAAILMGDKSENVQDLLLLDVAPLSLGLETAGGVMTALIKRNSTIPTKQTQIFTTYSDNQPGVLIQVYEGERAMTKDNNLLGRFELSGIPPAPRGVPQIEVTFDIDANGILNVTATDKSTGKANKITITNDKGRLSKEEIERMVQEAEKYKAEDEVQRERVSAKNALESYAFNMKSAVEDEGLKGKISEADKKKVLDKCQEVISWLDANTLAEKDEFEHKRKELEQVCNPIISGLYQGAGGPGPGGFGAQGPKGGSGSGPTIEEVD
T1 sequence (P0DMV8 2-641): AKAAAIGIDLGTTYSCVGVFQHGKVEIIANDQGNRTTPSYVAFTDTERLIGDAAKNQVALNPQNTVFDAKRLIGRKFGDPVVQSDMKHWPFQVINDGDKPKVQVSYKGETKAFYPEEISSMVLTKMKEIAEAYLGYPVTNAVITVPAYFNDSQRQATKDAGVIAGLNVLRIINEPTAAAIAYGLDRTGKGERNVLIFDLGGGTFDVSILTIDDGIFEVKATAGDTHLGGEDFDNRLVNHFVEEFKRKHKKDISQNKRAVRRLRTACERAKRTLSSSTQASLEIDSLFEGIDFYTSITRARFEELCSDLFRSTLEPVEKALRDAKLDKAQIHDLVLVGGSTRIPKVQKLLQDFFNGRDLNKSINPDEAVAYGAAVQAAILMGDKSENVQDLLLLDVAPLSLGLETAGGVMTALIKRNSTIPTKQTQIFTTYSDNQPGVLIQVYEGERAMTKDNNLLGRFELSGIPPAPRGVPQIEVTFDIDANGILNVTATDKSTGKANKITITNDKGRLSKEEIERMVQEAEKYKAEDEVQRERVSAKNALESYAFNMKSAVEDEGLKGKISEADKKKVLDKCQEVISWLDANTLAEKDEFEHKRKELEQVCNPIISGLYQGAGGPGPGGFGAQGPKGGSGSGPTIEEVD
Sequence of Biotinylated Hsp70 (P0DMV8 whole entry): as the sequence (P0DMV8 whole entry) above

Compound: CCc1cc(-c2n[nH]cc2-c2ccc3c(c2)OCO3)c(O)cc1OC1OC(CO)C(O)C(O)C1O (stereo not drawn) [BT44, 2-[4-(4-Benzo[1,3]dioxol-5-yl-1H-pyrazol-3-yl)-2-ethyl-5-hydroxy-phenoxy]-6-hydroxymethyl-tetrahydro-pyran-3,4,5-triol]
- Kd (Hsp70): 5.2 ± 0.3 µM

Compound: Biotinylated Hsp70 (from UniProt P0DMV8 1-641) (natural protein)
- fold lower amount bound with BT44 than without BT44 [1]: 10 fold

Compound: Cellular Hsp70 of U-937 cells (from UniProt P0DMV8 1-641) (natural protein)
- percent decrease of Caspase-3 bound to immobilized Hsp70 (against U-937wt cells treated with etoposide alone) [2]: 35 to 50%

Source: publication PMC6163214, “Etoposide-Induced Apoptosis in Cancer Cells Can Be Reinforced by an Uncoupled Link between Hsp70 and Caspase-3” (International Journal of Molecular Sciences, 2018)
